# According to patent US20120315277A1, “Compositions and Methods for the Therapy and Diagnosis of Influenza” (priority 2011, published 2012):
# Read-outs that look alike come from different tables or passages of the source.
# T1: A.Hong Kong.1144.99.H3N2
# T1 M2: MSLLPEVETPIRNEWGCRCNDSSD
# T2: A.Hong Kong.1180.99 H3N2
# T2 M2: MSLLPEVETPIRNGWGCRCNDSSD
# T3: A.Hong Kong.1.68.H3N2
# T3 M2: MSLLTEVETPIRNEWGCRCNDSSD
# T4: A.Caracas.1.71.H3N2
# T4 M2: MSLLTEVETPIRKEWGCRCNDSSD
# Tests used:
# M2 peptide SEQ ID NO 273 = assay: peptide ELISA, 5 µg/mL
# [1] = molecular target: truncated M2 peptide SEQ ID NO 271; assay: peptide ELISA, 5 µg/mL
# [2] = molecular target: truncated M2 peptide SEQ ID NO 298; assay: peptide ELISA, 5 µg/mL
# [3] = molecular target: truncated M2 peptide SEQ ID NO 299; assay: peptide ELISA, 5 µg/mL
# [4] = molecular target: truncated M2 peptide SEQ ID NO 300; assay: peptide ELISA, 5 µg/mL
# [5] = molecular target: truncated M2 peptide SEQ ID NO 301; assay: peptide ELISA, 5 µg/mL
# [6] = molecular target: truncated M2 peptide SEQ ID NO 302; assay: peptide ELISA, 5 µg/mL
# [7] = molecular target: truncated M2 peptide SEQ ID NO 303; assay: peptide ELISA, 5 µg/mL
# [8] = molecular target: truncated M2 peptide SEQ ID NO 304; assay: peptide ELISA, 5 µg/mL
# [9] = molecular target: truncated M2 peptide SEQ ID NO 305; assay: peptide ELISA, 5 µg/mL
# [10] = molecular target: truncated M2 peptide SEQ ID NO 306; assay: peptide ELISA, 5 µg/mL
# [11] = molecular target: truncated M2 peptide SEQ ID NO 307; assay: peptide ELISA, 5 µg/mL
# [12] = molecular target: truncated M2 peptide SEQ ID NO 308; assay: peptide ELISA, 5 µg/mL
# [13] = molecular target: truncated M2 peptide SEQ ID NO 309; assay: peptide ELISA, 5 µg/mL
# [14] = molecular target: truncated M2 peptide SEQ ID NO 310; assay: peptide ELISA, 5 µg/mL
# [15] = molecular target: truncated M2 peptide SEQ ID NO 311; assay: peptide ELISA, 5 µg/mL
# [16] = molecular target: truncated M2 peptide SEQ ID NO 312; assay: peptide ELISA, 5 µg/mL
# [17] = molecular target: truncated M2 peptide SEQ ID NO 313; assay: peptide ELISA, 5 µg/mL
# [18] = molecular target: truncated M2 peptide SEQ ID NO 314; assay: peptide ELISA, 5 µg/mL
# [19] = molecular target: truncated M2 peptide SEQ ID NO 315; assay: peptide ELISA, 5 µg/mL
# [20] = molecular target: truncated M2 peptide SEQ ID NO 316; assay: peptide ELISA, 5 µg/mL
# [21] = molecular target: 23 amino acid synthetic M2e peptide of A/Fort Worth/1/50 (H1N1) (influenza A virus A/Fort Worth/1/50 (H1N1)); assay: ELISA on coated 23mer M2e peptide
# [22] = molecular target: truncated M2 peptide SEQ ID NO 298; assay: peptide ELISA, 5 µg/mL; remark: listed apart in the source
# [23] = molecular target: truncated M2 peptide SEQ ID NO 299; assay: peptide ELISA, 5 µg/mL; remark: listed apart in the source
# [24] = molecular target: truncated M2 peptide SEQ ID NO 309; assay: peptide ELISA, 5 µg/mL; remark: listed apart in the source
# A.Hong Kong.1144.99.H3N2 = molecular target: T1, A.Hong Kong.1144.99.H3N2; assay: FACS, transfected 293 cells
# A.Hong Kong.1180.99 H3N2 = molecular target: T2, A.Hong Kong.1180.99 H3N2; assay: FACS, transfected 293 cells
# A.Hong Kong.1.68.H3N2 [25] = molecular target: T3, A.Hong Kong.1.68.H3N2; assay: FACS, transfected 293 cells, 1 µg/mL
# A.Caracas.1.71.H3N2 [26] = molecular target: T4, A.Caracas.1.71.H3N2; assay: FACS, transfected 293 cells, 1 µg/mL
# A.Hong Kong.1.68.H3N2 [27] = molecular target: T3, A.Hong Kong.1.68.H3N2; assay: FACS, transfected HEK293, 1 µg/ml [D00006 FIG. 3C-1]
# A.Caracas.1.71.H3N2 [28] = molecular target: T4, A.Caracas.1.71.H3N2; assay: as above
molecule,measurement,setting,value
14C2 (chimeric mouse V-region/human IgG1 kappa 14C2 antibody),ELISA A450,M2 peptide SEQ ID NO 273,3.85
same,ELISA A450,[1],0.21
same,ELISA A450,[2],3.94
same,ELISA A450,[3],3.95
same,ELISA A450,[4],0.15
same,ELISA A450,[5],0.19
same,ELISA A450,[6],0.23
same,ELISA A450,[7],0.19
same,ELISA A450,[8],0.23
same,ELISA A450,[9],0.22
same,ELISA A450,[10],0.27
same,ELISA A450,[11],3.99
same,ELISA A450,[12],3.9
same,ELISA A450,[13],3.97
same,ELISA A450,[14],3.97
same,ELISA A450,[15],0.18
same,ELISA A450,[16],0.2
same,ELISA A450,[17],0.21
same,ELISA A450,[18],0.17
same,ELISA A450,[19],0.15
same,ELISA A450,[20],0.14
same,EC50,[21],0.01 µg/mL
"23K12 (antibody, V domains shown) VH: EVQLVESGGGLVQPGGSLRISCAASGFTVSSNYMSWVRQAPGKGLEWVSVIYSGGSTYYADSVKGRFSFSRDNSKNTVFLQMNSLRAEDTAVYYCARCLSRMRGYGLDVWGQGTTVTVS VL: DIQMTQSPSSLSASVGDRVTITCRTSQSISSYLNWYQQKPGKAPKLLIYAASSLQSGVPSRFSGSGSGTDFTLTISGLQPEDFATYYCQQSYSMPAFGQGTKLEIK",ELISA A450,[22],0.21
same,ELISA A450,[23],0.21
same,ELISA A450,[24],0.3
same,binding result,A.Hong Kong.1144.99.H3N2,no binding (tested: 1 µg/mL)
same,binding result,A.Hong Kong.1180.99 H3N2,no binding (tested: 1 µg/mL)
same,binding result,A.Hong Kong.1.68.H3N2 [25],binds
same,binding result,A.Caracas.1.71.H3N2 [26],binds
"8I10 (antibody, V domains shown) VH: QVQLQESGPGLVKPSETLSLTCTVSGSSISNYYWSWIRQSPGKGLEWIGFIYYGGNTKYNPSLKSRVTISQDTSKSQVSLTMSSVTAAESAVYFCARASCSGGYCILDYWGQGTLVTVS VL: DIQMTQSPSSLSASVGDRVTITCRASQNIYKYLNWYQQRPGKAPKGLISAASGLQSGVPSRFSGSGSGTDFTLTITSLQPEDFATYYCQQSYSPPLTFGGGTRVEIK",binding result,A.Hong Kong.1144.99.H3N2,no binding (tested: 1 µg/mL)
same,binding result,A.Hong Kong.1180.99 H3N2,no binding (tested: 1 µg/mL)
same,binding result,A.Hong Kong.1.68.H3N2 [27],binds
same,binding result,A.Caracas.1.71.H3N2 [28],binds
